Source: publication PMC4270374

B1: MtUGM (Mycobacterium tuberculosis H37Rv) (protein)
chain: MQPMTARFDLFVVGSGFFGLTIAERVATQLDKRVLVLERRPHIGGNAYSEAEPQTGIEVHKYGAHLFHTSNKRVWDYVRQFTDFTDYRHRVFAMHNGQAYQFPMGLGLVSQFFGKYFTPEQARQLIAEQAAEIDTADAQNLEEKAISLIGRPLYEAFVKGYTAKQWQTDPKELPAANITRLPVRYTFDNRYFSDTYEGLPTDGYTAWLQNMAADHRIEVRLNTDWFDVRGQLRPGSPAAPVVYTGPLDRYFDYAEGRLGWRTLDFEVEVLPIGDFQGTAVMNYNDLDVPYTRIHEFRHFHPERDYPTDKTVIMREYSRFAEDDDEPYYPINTEADRALLATYRARAKSETASSKVLFGGRLGTYQYLDMHMAIASALNMYDNVLAPHLRDGVPLLQDGA
B2: AfUGM (wild-type) (Aspergillus fumigatus) (protein)
chain: MTHPDISVDVLVIGAGPTGLGAAKRLNQIDGPSWMIVDSNETPGGLASTDVTPEGFLYDVGGHVIFSHYKYFDDCLDEALPKEDDWYTHQRISYVRCQGQWVPYPFQNNISMLPKEEQVKCIDGMIDAALEARVANTKPKTFDEWIVRMMGTGIADLFMRPYNFKVWAVPTTKMQCAWLGERVAAPNLKAVTTNVILGKTAGNWGPNATFRFPARGGTGGIWIAVANTLPKEKTRFGEKGKVTKVNANNKTVTLQDGTTIGYKKLVSTMAVDFLAEAMNDQELVGLTKQLFYSSTHVIGVGVRGSRPERIGDKCWLYFPEDNCPFYRATIFSNYSPYNQPEASKKLPTMQLADGSRPQSTEAKEGPYWSIMLEVSESSMKPVNQETILADCIQGLVNTEMLKPTDEIVSTYHRRFDHGYPTPTLEREGALTQILPKLQDKDIWSRGRFGSWRYEVGNQDHSFMLGVEAVDNIVNGAVELTLNYPDFVNGRQNTERRLVDGAQVFAKSKAQ

Substrate: O=c1ccn([C@@H]2O[C@H](COP(=O)(O)OP(=O)(O)O[C@H]3O[C@@H]([C@H](O)CO)[C@H](O)[C@H]3O)[C@@H](O)[C@H]2O)c(=O)[nH]1
Experiment: purified protein
[1] = 25 mM HEPES, 125 mM NaCl, 20 mM dithionite, pH 7.5, 37 °C

Row | Protein | Km (pH 7.5, 37.0 °C) [µM] | kcat/Km (pH 7.5, 37.0 °C) [M⁻¹ s⁻¹] | Km [1] [µM] | kcat [1] [s⁻¹] | kcat/Km [1] [M⁻¹ s⁻¹]
1 | B1 | 78 ± 16 | 910000 ± 150000 |  |  | 
2 | B2 |  |  | 110 ± 15 | 72 ± 4 | 650000 ± 90000
